Data from article PMC5147500 (2016).

Target: retromer (Homo sapiens, UniProt O75436)
Assay: ITC

Binder: AQPELYLLNTMDADSLVSR (in presence of SNX3) [DMT1-II recycling signal]
- Kd: ~127 µM
